From US20080213284A1
Where two headings read alike, the source gives them in different places.

Columns and labels:
[1] = biological target: receptor on VERO E6 cells (not identified in the filing); assay: FACS competition against S2-Fc (330 ng/mL) on VERO E6 cells; agent at 10 µg/mL
[2] = biological target: receptor on VERO E6 cells (not identified in the filing); assay: FACS competition against S2-Fc (330 ng/mL) on VERO E6 cells; agent at 1 µg/mL
[3] = biological target: receptor on VERO E6 cells (not identified in the filing)

Substance	Percent of Inhibition [1] [%]	Percent of Inhibition [2] [%]	Percent of Inhibition [3] [%]
Negative control (blocking agent)	0	0	0
recombinant RBD2 (from UniProt P59594 284-735)	100	100	100
